Target: T1, LRP cl-IV (Homo sapiens, UniProt Q07954)
T1 construct: Cluster IV of the low-density lipoprotein (LDL) receptor-related protein (LRP cl-IV); made in house; host or cells: HEK293E/S
Test: ELISA, LRP cluster IV binding to misfolded proteins
Conditions: coated at 5 μg/ml
Procedure: Binding of LRP cl-IV to misfolded protein was determined using an enzyme linked immuno sorbent assay (ELISA) set-up. For this purpose 50 μl of a 5 μg/ml solution of BSA, BSA-AGE, Hb or Hb-AGE or coat buffer (for negative control) was coated for 1 h with motion. Proteins were diluted in coat buffer (100 mM NaHCO3 pH 9.6). The BSA and Hb controls were prepared freshly by dissolving proteins at 1 mg/ml in PBS by rolling for 10 minutes on a roller bank at room temperature, 10 minutes incubation at 37° C. followed by again 10 minutes incubation at the roller bank. Coat controls were performed with anti-glycated protein antibody 4B5, anti-albumin antibody or anti Hb antibody. After coating the plates were washed twice with PBS/0.1% Tween-20 (v/v) and blocked with 300 μl/well blocking reagent (Roche Diagnostics, Almere, The Netherlands) for 1 h at room temperature with motion. […] After five washes with wash buffer binding of antibody was assessed with a secondary antibody. […] After 5 washes with wash buffer, binding of anti-FLAG antibody and secondary antibodies was assessed with 100 μl/well TMB substrate (ready to use from Tebu Bio). […] After ˜2 minutes absorbance was read at 450 nm.

T1 sequence (Q07954 3332-3778): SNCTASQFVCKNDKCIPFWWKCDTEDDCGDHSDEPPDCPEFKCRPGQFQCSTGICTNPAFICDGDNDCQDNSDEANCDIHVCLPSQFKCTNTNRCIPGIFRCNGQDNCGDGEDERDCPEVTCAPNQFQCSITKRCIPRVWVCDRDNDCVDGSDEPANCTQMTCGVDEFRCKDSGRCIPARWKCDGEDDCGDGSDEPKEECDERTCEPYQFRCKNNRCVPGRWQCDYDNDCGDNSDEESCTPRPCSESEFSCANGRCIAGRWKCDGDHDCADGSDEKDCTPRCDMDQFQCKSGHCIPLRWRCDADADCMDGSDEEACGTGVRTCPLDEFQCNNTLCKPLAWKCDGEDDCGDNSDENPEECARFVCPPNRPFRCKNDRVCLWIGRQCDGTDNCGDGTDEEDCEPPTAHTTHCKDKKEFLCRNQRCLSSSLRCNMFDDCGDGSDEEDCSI

Substance: albumin-AGE: advanced glycation end-product modified bovine serum albumin
- binding of LRP cl-IV: binds specifically

— patent US20080220446A1, “Method for Detecting and/or Removing Protein and/or Peptide Comprising a Cross-Beta Structure From an Aqueous Solution Comprising a Protein” (priority 2005, published 2008)
